B1: peptide A2.2 (peptide)
peptide: YMLDLQPET
modifications: not checked
B2: peptide A2.4 (peptide)
peptide: TLGIVCPIC
modifications: not checked
B3: peptide A2.1/4 (peptide)
peptide: LLMGTLGIVCPIC
modifications: not checked

Biological target: recombinant HLA-A*0201 refolded with purified human beta2-microglobulin (human)
Assay: circular dichroism melting of the refolded peptide-HLA-b2m complex (temperature at which 50% is melted)

Row | Binder | Tm [°C]
1 | B1 | 52.5
2 | B2 | 41.5
3 | B3 | 41

Reference: patent publication US7097843
